The values below come from paper PMC12151148.

The term Kd denotes the constant that tells how readily two partners part at equilibrium.

One assay deals with FL-LGN-4E (mouse). Description: SEC-MALS; called SLS; HELEOS II (Wyatt); 100 μl of purified sample at about 10 μM.
Another assay deals with FL-AGS3-L-4E (mouse). The description is as above.
A further assay concerns the target FL-LGN (mouse). Description: ITC; 25°C; 50 mM Tris (pH 8.0), 100 mM NaCl, 1 mM EDTA; one protein (0.2 mM) injected into another (0.02 mM); one-site binding model. For orientation: Isothermal titration calorimetry measures the heat released or taken up as one component is titrated into another.
In a further assay the target is FL-AGS3 (mouse). The assay is described as above.
The target of assay [1] is FL-LGN + Gαi3⋅GDP (mouse | human) (UniProt P08754). The assay is described as above.
Assay [2] concerns the target FL-AGS3 + Gαi3⋅GDP (mouse | human) (UniProt P08754). Described as above.
In assay [3] the target is AGS3-TPR (1–405) (mouse). Description: ITC; 25°C; 50 mM Tris (pH 8.0), NaCl raised to 300 mM for AGS3-TPR or AGS3-L, 1 mM EDTA; one protein (0.2 mM) injected into another (0.02 mM); one-site binding model.
The next assay deals with AGS3-L (−23–405) (mouse). Description: SEC-MALS; called SLS; HELEOS II (Wyatt); 100 μl of purified sample at about 10 μM. (Size exclusion chromatography separates by hydrodynamic size, large species first.)
Another assay concerns the target LGN-TPR (1–409) (mouse). The assay is described as above.
Assay [4] deals with AGS3-TPR (1–405) (mouse). The description is as above.

Chain of FL-AGS3 + Gαi3⋅GDP (mouse | human) (P08754 whole entry, looked up): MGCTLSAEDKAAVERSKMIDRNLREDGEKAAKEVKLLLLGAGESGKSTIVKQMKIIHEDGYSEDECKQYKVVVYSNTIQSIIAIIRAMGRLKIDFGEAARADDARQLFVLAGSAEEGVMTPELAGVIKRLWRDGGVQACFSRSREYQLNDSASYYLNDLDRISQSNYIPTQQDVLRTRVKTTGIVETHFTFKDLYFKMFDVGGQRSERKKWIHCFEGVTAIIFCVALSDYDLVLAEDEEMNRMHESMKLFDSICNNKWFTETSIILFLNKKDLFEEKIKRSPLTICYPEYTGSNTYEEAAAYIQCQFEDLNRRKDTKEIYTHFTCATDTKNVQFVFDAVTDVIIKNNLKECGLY
Chain of FL-LGN + Gαi3⋅GDP (mouse | human) (P08754 whole entry, looked up): as above

B1: NuMA (1808–2001) (domain or fragment)
chain: KLDVEEPDSANSSFYSTRSAPASQASLRATSSTQSLARLGSPDYGNSALLSLPGYRPTTRSSARRSQAGVSSGAPPGRNSFYMGTCQDEPEQLDDWNRIAELQQRNRVCPPHLKTCYPLESRPSLSLGTITDEEMKTGDPQETLRRASMQPIQIAEGTGITTRQQRKRVSLEPHQGPGTPESKKATSCFPRPMT
As for B1, in the assay with FL-LGN-4E (mouse), the stoichiometry N (NuMA per FL-LGN-4E (2:2)) turned out to be 1. The same molecule returned a stoichiometry N (NuMA per FL-AGS3-L-4E (1:1)) with FL-AGS3-L-4E (mouse) of 1. In addition, the Kd with FL-LGN (mouse) turned out to be 3130 nM; with FL-AGS3 (mouse), 3610 nM; in [1], 2240 nM; in assay [2] it was 2280 nM.

B2: NuMA (1886–1912) (domain or fragment)
chain: NSFYMGTCQDEPEQLDDWNRIAELQQR
B2: the Kd with AGS3-TPR (1–405) (mouse) [3] was 220 nM.

B3: Insc (18–66) (domain or fragment)
chain: WGLWGAQESRRLCCVGPDRCGQALLQIGINMMALPGGRHLDSVPLQEQR
For the molecule B3, the Kd with FL-LGN (mouse) came to 3920 nM; with FL-AGS3 (mouse), 2270 nM; in assay [1] it was 2620 nM; in assay [2] it was 2290 nM; with AGS3-TPR (1–405) (mouse) [3], 290 nM.

B4: NuMA (1847–1914) (domain or fragment)
chain: GSPDYGNSALLSLPGYRPTTRSSARRSQAGVSSGAPPGRNSFYMGTCQDEPEQLDDWNRIAELQQRNR
Turning to B4, the stoichiometry N (NuMA per AGS3-L (3:3)) with AGS3-L (−23–405) (mouse) came to 1. Moreover, the stoichiometry N (NuMA per LGN-TPR (3:3)) with LGN-TPR (1–409) (mouse) came out at 1. This molecule yielded a stoichiometry N (NuMA per AGS3-TPR (1:1)) in the assay with AGS3-TPR (1–405) (mouse) [4] of 1.
